The results in this text go back to article PMC6550527, “Evolution of Superinfection Immunity in Cluster A Mycobacteriophages”.

For this data set, the target named is T1, RepTrixie immunity repressor (Mycobacteriophage Trixie, UniProt G1JV33 1-192).
T1 sequence: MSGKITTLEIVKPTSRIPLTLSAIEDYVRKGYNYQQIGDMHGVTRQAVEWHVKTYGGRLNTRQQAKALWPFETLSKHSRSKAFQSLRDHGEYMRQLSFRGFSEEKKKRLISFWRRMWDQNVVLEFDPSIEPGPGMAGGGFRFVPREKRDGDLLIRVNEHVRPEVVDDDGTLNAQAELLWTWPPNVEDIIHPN
The data set can be described thus: EMSA; EMSA on 8% polyacrylamide gel, serially diluted Rep with 5'-32P 30-bp dsDNA; binding buffer and temperature not given (ref. 54); protein storage buffer 50 mM Tris pH 8.0, 150 mM NaCl, 0.1 mM EDTA, 0.1 mM DTT, 50% glycerol. The note with it: protein: recombinant; chain copies: 2; label: 5' 32P; blunt. For orientation: Mobility shift assays separate free from complexed probe on a gel.

B1: Trixie stoperator 30-bp (dsDNA)
DNA 1: TGAGCAGTACTTGACATTCACCAGGTTGGG
DNA 2: CCCAACCTGGTGAATGTCAAGTACTGCTCA
As to B1, the Kd was about 6.48 nM.

B2: RedRock stoperator 30-bp (dsDNA)
DNA 1: TAAGGCGAACTTGACATCCACCGGGTTGGG
DNA 2: CCCAACCCGGTGGATGTCAAGTTCGCCTTA
On to B2, for which the dissociation constant (Kd) was about 6.48 nM.

Broadly, the Kd is the constant that tells how readily two partners part at equilibrium.
